Measured values: the Immune Epitope Database (IEDB)

Experiments:
HLA-A*02:01 = assay: IEDB peptide-MHC binding, purified MHC/competitive/radioactivity; filed as Kd, often an IC50 or EC50 that approximates it; ≥ and ≤ were set here for values at or beyond the usual limits of such assays
HLA-A*11:01 = assay: as above
[1] = source organism: Mammarenavirus choriomeningitidis
[2] = source organism: Mammarenavirus brazilense

## AQPGLLSYV
HLA-A*02:01; source organism: Mammarenavirus guanaritoense
  Kd: 161 nM

## FTNDSIISH
HLA-A*11:01; [1]
  Kd: 38 nM

## GLSQFTQTV
HLA-A*02:01; source organism: Mammarenavirus juninense
  Kd: 30 nM

## KCLNIMLGK
HLA-A*11:01; [2]
  Kd: 678 nM

## LVSFLLLAGR
HLA-A*11:01; [1]
  Kd: 70 nM

## LVTFLLLCGR
HLA-A*11:01; source organism: Mammarenavirus lassaense
  Kd: ≥ 5000 nM

## SIQKNTIFK
HLA-A*11:01; source organism: Mammarenavirus machupoense
  Kd: 5.5 nM

## SSIIRSLPK
HLA-A*11:01; source organism: Mammarenavirus whitewaterense
  Kd: 2.5 nM

## SSQRDTILK
HLA-A*11:01; [2]
  Kd: 9.3 nM

## STYYVHENK
HLA-A*11:01; [2]
  Kd: 6 nM

## TTYLGPLSCK
HLA-A*11:01; [1]
  Kd: 2.8 nM
